{
  "source": "patent US20220296726A1",
  "about": "(Bicycle, published 2022)",
  "binders": {"B1": {"name": "BCY19669 (peptide)", "peptide": "Ac-CSEYCF[1Nal]PFYHC-NH2", "modifications": "linker 1-5-12 via TATA", "SMILES": "CC(=O)N[C@H]1CSCCC(=O)N2CN3CN(C2)C(=O)CCSC[C@H](NC(=O)[C@H](Cc2ccc(O)cc2)NC(=O)[C@H](CCC(=O)O)NC(=O)[C@H](CO)NC1=O)C(=O)N[C@@H](Cc1ccccc1)C(=O)N[C@@H](Cc1cccc2ccccc12)C(=O)N1CCC[C@H]1C(=O)N[C@@H](Cc1ccccc1)C(=O)N[C@@H](Cc1ccc(O)cc1)C(=O)N[C@@H](Cc1c[nH]cn1)C(=O)N[C@H](C(N)=O)CSCCC3=O"}, "B2": {"name": "BCY19766 (peptide)", "peptide": "ACSYYCFWPFQSCA-NH2", "modifications": "linker 2-6-13 via TATA; N-terminus assumed", "SMILES": "C[C@H](N)C(=O)N[C@H]1CSCCC(=O)N2CN3CN(C2)C(=O)CCSC[C@H](NC(=O)[C@H](Cc2ccc(O)cc2)NC(=O)[C@H](Cc2ccc(O)cc2)NC(=O)[C@H](CO)NC1=O)C(=O)N[C@@H](Cc1ccccc1)C(=O)N[C@@H](Cc1c[nH]c2ccccc12)C(=O)N1CCC[C@H]1C(=O)N[C@@H](Cc1ccccc1)C(=O)N[C@@H](CCC(N)=O)C(=O)N[C@@H](CO)C(=O)N[C@H](C(=O)N[C@@H](C)C(N)=O)CSCCC3=O"}, "B3": {"name": "BCY20058 (peptide)", "peptide": "CSEYCFXPFYHC", "modifications": "N-terminal acetyl (Ac); CiSEYCiiF[5FTrp]PFYHCiii; Ci, Cii, Ciii on TATA scaffold"}, "B4": {"name": "BCY20067 (peptide)", "peptide": "CSEYCFWXFYHC", "modifications": "N-terminal acetyl (Ac); CiSEYCiiFW[Cis-HyP]FYHCiii; Ci, Cii, Ciii on TATA scaffold"}, "B5": {"name": "BCY20057 (peptide)", "peptide": "CSEYCFXPFYHC", "modifications": "N-terminal acetyl (Ac); CiSEYCiiF[6FTrp]PFYHCiii; Ci, Cii, Ciii on TATA scaffold"}, "B6": {"name": "BCY20051 (peptide)", "peptide": "CSEYCXWPFYHC", "modifications": "N-terminal acetyl (Ac); CiSEYCii[2FPhe]WPFYHCiii; Ci, Cii, Ciii on TATA scaffold"}, "B7": {"name": "BCY20080 (peptide)", "peptide": "CSEYCFWPFXHC", "modifications": "N-terminal acetyl (Ac); CiSEYCiiFWPF[3tBuTyr]HCiii; Ci, Cii, Ciii on TATA scaffold"}, "B8": {"name": "BCY20062 (peptide)", "peptide": "CSEYCFXPFYHC", "modifications": "not fully specified; N-terminal acetyl (Ac); CiSEYCiiF[AzaTrp]PFYHCiii; Ci, Cii, Ciii on TATA scaffold"}, "B9": {"name": "BCY20072 (peptide)", "peptide": "CSEYCFWPXYHC", "modifications": "N-terminal acetyl (Ac); CiSEYCiiFWP[3MePhe]YHCiii; Ci, Cii, Ciii on TATA scaffold"}},
  "note": "*1 amine or outer side, *2 acyl side, *3 side chain or, on linkers, in order; H or OH if unused. Bridges are numbered along the chain shown (N, C = ends). Where no end group is shown, it is not given here. [ ]: non-standard residue; d: D form. TATA = O=C(CC[*:1])N1CN(C(=O)CC[*:2])CN(C(=O)CC[*:3])C1; Phe(4-CF3) = N[C@@H](Cc1ccc(C(F)(F)F)cc1)C(=O)O; Phe(3-Me) = Cc1cccc(C[C@H](N)C(=O)O)c1; 1Nal = N[C@@H](Cc1cccc2ccccc12)C(=O)O; 2Nal = N[C@@H](Cc1ccc2ccccc2c1)C(=O)O; hPhe = N[C@@H](CCc1ccccc1)C(=O)O; NMeA = CN[C@@H](C)C(=O)O",
  "data": [
    {"molecular_target": "T1, TREM2 on human iPSC macrophages (human, UniProt Q9NZC2 19-230)", "T1 sequence (looked up)": "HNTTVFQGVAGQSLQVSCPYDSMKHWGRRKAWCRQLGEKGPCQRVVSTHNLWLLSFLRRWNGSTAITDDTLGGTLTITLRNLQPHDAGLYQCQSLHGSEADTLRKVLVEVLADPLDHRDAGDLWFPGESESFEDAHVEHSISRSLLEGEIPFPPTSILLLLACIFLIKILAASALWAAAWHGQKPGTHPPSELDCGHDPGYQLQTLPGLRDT", "test": "cell-based or functional assay", "units": {"pSYK (µM)": "µM"}, "values": [
      {"binder": "ACTNYCFWPFQSCA (linker 2-6-13 via TATA)", "note": "[BCY19780]", "pSYK (µM)": 12.6},
      {"binder": "ACTNYCFWPFYLCA (linker 2-6-13 via TATA)", "note": "[BCY19782]", "pSYK (µM)": 3.8},
      {"binder": "ACTNYCFWPFQYCA (linker 2-6-13 via TATA)", "note": "[BCY19779]", "pSYK (µM)": 2.5},
      {"binder": "ACTNYCFWPFWSCA (linker 2-6-13 via TATA)", "note": "[BCY19769]", "pSYK (µM)": 0.2},
      {"binder": "ACTNYCFWPFYSCA (linker 2-6-13 via TATA)", "note": "[BCY19781]", "pSYK (µM)": 34.1},
      {"binder": "Ac-CSEYCFWPFYAC (linker 1-5-12 via TATA)", "note": "[BCY19293]", "pSYK (µM)": 7.2},
      {"binder": "ACTNYCFWPFAVCA (linker 2-6-13 via TATA)", "note": "[BCY19783]", "pSYK (µM)": 4.2},
      {"binder": "ACSNYCFWPFWQCA (linker 2-6-13 via TATA)", "note": "[BCY19770]", "pSYK (µM)": 4.5},
      {"binder": "ACSEYCFWPFFLCA (linker 2-6-13 via TATA)", "note": "[BCY19776]", "pSYK (µM)": 4.4},
      {"binder": "ACSEYCFWPFWQCA (linker 2-6-13 via TATA)", "note": "[BCY19778]", "pSYK (µM)": 4.6},
      {"binder": "ACSNYCFWPFFQCA (linker 2-6-13 via TATA)", "note": "[BCY19772]", "pSYK (µM)": 13.9},
      {"binder": "Ac-CSEYCF[1Nal]P[hPhe]YHC (linker 1-5-12 via TATA)", "note": "[BCY19672]", "pSYK (µM)": 8.5},
      {"binder": "B1", "pSYK (µM)": 16.6},
      {"binder": "Ac-CSEYCF[1Nal]PFYAC (linker 1-5-12 via TATA)", "note": "[BCY19294]", "pSYK (µM)": "< 3.4"},
      {"binder": "Ac-CSEYCF[2Nal]PFYAC (linker 1-5-12 via TATA)", "note": "[BCY19296]", "pSYK (µM)": "< 3.4"},
      {"binder": "Ac-CSEYCFW[NMeA]FYAC (linker 1-5-12 via TATA)", "note": "[BCY19303]", "pSYK (µM)": "< 3.4"},
      {"binder": "CSEYCFWPXYHC (N-terminal acetyl (Ac); CiSEYCiiFWP[HPhe]YHCiii; Ci, Cii, Ciii on TATA scaffold)", "note": "[BCY19667]", "pSYK (µM)": 7.4},
      {"binder": "ACSYYCFWPFQYCA (linker 2-6-13 via TATA)", "note": "[BCY19767]", "pSYK (µM)": 8.6},
      {"binder": "B2", "pSYK (µM)": 35.2},
      {"binder": "ACSEYCFWPFQYCA (linker 2-6-13 via TATA)", "note": "[BCY19784]", "pSYK (µM)": 1.8},
      {"binder": "ACSEYCFWPFQWCA (linker 2-6-13 via TATA)", "note": "[BCY19771]", "pSYK (µM)": 9.9}
    ]},
    {"molecular_target": "T2, Human TREM2 extracellular domain (ECD), residues 19-131, C-terminally biotinylated, deglycosylated (human, UniProt Q9NZC2 19-131, C-terminally biotinylated; deglycosylated)", "T2 construct": "range 19-131; loaded on Superstreptavidin biosensors; also called triggering receptor expressed on myeloid cells 2; Human BLI (deglycosylated)", "T2 sequence (looked up)": "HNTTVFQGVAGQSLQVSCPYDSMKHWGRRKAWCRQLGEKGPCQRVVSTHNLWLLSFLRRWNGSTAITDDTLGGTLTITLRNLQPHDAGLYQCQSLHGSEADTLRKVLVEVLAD", "test": "BLI steady state, deglycosylated human TREM2 ECD on sensor", "description": "Bio-layer interferometry was performed on an Octet RED384® system (Sartorius) at 25° C. in a buffer containing 50 mM HEPES (pH 7.5), 150 mM NaCl and 0.1% Tween. […] Reference wells containing no bicycle peptides and reference sensors loaded with an unrelated protein (His-tagged MLLT3a) were subjected to the same assay protocol and double reference subtraction was used for processing to account for non-specific binding. Traces were analysed using Octet Software (Version 11.0). Association and dissociation curves were globally fit and the response at equilibrium (Req) plotted against concentration to obtain steady-state KD values.", "units": {"Kd": "nM"}, "values": [
      {"binder": "ACTNYCFWPFQSCA (linker 2-6-13 via TATA)", "note": "[BCY19780]", "Kd": 2400},
      {"binder": "ACTNYCFWPFYLCA (linker 2-6-13 via TATA)", "note": "[BCY19782]", "Kd": 1400},
      {"binder": "ACTNYCFWPFQYCA (linker 2-6-13 via TATA)", "note": "[BCY19779]", "Kd": 920},
      {"binder": "ACTNYCFWPFWSCA (linker 2-6-13 via TATA)", "note": "[BCY19769]", "Kd": 920},
      {"binder": "ACTNYCFWPFYSCA (linker 2-6-13 via TATA)", "note": "[BCY19781]", "Kd": 1400},
      {"binder": "B3", "Kd": 1430},
      {"binder": "Ac-CSEYCFWPFYAC (linker 1-5-12 via TATA)", "note": "[BCY19293]", "Kd": 970},
      {"binder": "B4", "Kd": 23600},
      {"binder": "Ac-CSEYCF[2Nal]PFYHC (linker 1-5-12 via TATA)", "note": "[BCY20056]", "Kd": 4690},
      {"binder": "Ac-ACSEYCFWPFYHCA-NH2 (linker 2-6-13 via TATA)", "note": "[BCY18218]", "Kd": 2000},
      {"binder": "CSEYCFWXFYHC (N-terminal acetyl (Ac); CiSEYCiiFW[Aze]FYHCiii; Ci, Cii, Ciii on TATA scaffold)", "note": "[BCY20068]", "Kd": 2540},
      {"binder": "Ac-CSEYCF[Phe(3-Me)]PFYHC (linker 1-5-12 via TATA)", "note": "[BCY20064]", "Kd": 5240},
      {"binder": "B5", "Kd": 2560},
      {"binder": "B6", "Kd": 2040},
      {"binder": "CSEYCFWPFXHC (N-terminal acetyl (Ac); CiSEYCiiFWPF[1Nal]HCiii; Ci, Cii, Ciii on TATA scaffold)", "note": "[BCY20081]", "Kd": 1060},
      {"binder": "B7", "Kd": 375},
      {"binder": "CSEYCFWXFYHC (N-terminal acetyl (Ac); CiSEYCiiFW[Pip]FYHCiii; Ci, Cii, Ciii on TATA scaffold)", "note": "[BCY20069]", "Kd": 1460},
      {"binder": "B8", "Kd": 3440},
      {"binder": "ACTNYCFWPFAVCA (linker 2-6-13 via TATA)", "note": "[BCY19783]", "Kd": 2700},
      {"binder": "ACSNYCFWPFWQCA (linker 2-6-13 via TATA)", "note": "[BCY19770]", "Kd": 1800},
      {"binder": "ACSEYCFWPFFLCA (linker 2-6-13 via TATA)", "note": "[BCY19776]", "Kd": 750},
      {"binder": "ACSEYCFWPFWQCA (linker 2-6-13 via TATA)", "note": "[BCY19778]", "Kd": 3600},
      {"binder": "ACSNYCFWPFFQCA (linker 2-6-13 via TATA)", "note": "[BCY19772]", "Kd": 960},
      {"binder": "Ac-CSEYCF[1Nal]P[hPhe]YHC (linker 1-5-12 via TATA)", "note": "[BCY19672]", "Kd": 2800},
      {"binder": "CSEYCFWPFYHC-NH2 (linker 1-5-12 via TATA)", "note": "[BCY18219]", "Kd": 700},
      {"binder": "B9", "Kd": 1670},
      {"binder": "B1", "Kd": 2000},
      {"binder": "Ac-CSEYCF[1Nal]PFYAC (linker 1-5-12 via TATA)", "note": "[BCY19294]", "Kd": 1500},
      {"binder": "Ac-CSEYCF[2Nal]PFYAC (linker 1-5-12 via TATA)", "note": "[BCY19296]", "Kd": 2700},
      {"binder": "Ac-CSEYCFW[NMeA]FYAC (linker 1-5-12 via TATA)", "note": "[BCY19303]", "Kd": 2300},
      {"binder": "CSEYCFWPXYHC (N-terminal acetyl (Ac); CiSEYCiiFWP[HPhe]YHCiii; Ci, Cii, Ciii on TATA scaffold)", "note": "[BCY19667]", "Kd": 430},
      {"binder": "Ac-CSEYCF[Phe(4-CF3)]PFYHC (linker 1-5-12 via TATA)", "note": "[BCY20065]", "Kd": 7280},
      {"binder": "ACSYYCFWPFQYCA (linker 2-6-13 via TATA)", "note": "[BCY19767]", "Kd": 550},
      {"binder": "B2", "Kd": 1000},
      {"binder": "ACSEYCFWPFQYCA (linker 2-6-13 via TATA)", "note": "[BCY19784]", "Kd": 450},
      {"binder": "ACSEYCFWPFQWCA (linker 2-6-13 via TATA)", "note": "[BCY19771]", "Kd": 5700}
    ]}
  ]
}
